T1: MERS-CoV spike glycoprotein (S) (MERS-CoV, UniProt K9N5Q8 18-1353)
T1 sequence: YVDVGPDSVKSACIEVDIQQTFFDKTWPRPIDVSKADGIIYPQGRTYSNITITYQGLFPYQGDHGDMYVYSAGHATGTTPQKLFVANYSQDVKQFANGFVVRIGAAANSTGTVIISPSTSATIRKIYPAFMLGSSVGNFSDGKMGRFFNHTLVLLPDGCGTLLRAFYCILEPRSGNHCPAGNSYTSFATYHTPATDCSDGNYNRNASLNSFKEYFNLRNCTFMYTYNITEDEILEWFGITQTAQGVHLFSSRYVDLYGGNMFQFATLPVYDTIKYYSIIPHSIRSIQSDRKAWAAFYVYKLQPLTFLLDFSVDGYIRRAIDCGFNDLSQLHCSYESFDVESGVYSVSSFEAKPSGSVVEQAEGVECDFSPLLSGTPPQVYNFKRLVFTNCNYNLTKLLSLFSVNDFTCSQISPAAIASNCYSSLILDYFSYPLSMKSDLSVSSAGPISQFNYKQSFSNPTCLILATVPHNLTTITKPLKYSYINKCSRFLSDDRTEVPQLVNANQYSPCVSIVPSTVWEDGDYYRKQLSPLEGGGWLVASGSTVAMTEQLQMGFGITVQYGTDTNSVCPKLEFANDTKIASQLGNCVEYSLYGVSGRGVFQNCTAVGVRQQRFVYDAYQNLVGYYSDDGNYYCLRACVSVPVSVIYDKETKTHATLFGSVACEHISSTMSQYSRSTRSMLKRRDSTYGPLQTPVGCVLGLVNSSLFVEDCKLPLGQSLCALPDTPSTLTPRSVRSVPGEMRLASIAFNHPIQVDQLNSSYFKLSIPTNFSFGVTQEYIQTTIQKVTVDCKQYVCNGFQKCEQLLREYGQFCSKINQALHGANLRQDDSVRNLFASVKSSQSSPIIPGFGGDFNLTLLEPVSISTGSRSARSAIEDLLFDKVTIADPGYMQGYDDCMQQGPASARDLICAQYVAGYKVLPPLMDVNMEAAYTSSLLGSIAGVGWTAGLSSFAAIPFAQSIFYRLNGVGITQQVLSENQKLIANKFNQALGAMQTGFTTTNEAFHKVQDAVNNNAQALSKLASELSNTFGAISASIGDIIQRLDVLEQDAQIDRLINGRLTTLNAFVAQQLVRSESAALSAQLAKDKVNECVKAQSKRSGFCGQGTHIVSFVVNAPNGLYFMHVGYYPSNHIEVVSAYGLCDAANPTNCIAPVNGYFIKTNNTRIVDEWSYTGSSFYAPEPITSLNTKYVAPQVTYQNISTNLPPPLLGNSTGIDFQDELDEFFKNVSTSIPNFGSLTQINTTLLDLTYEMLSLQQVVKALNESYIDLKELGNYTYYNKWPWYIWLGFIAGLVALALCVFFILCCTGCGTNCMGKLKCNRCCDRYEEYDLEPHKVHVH

B1: IgG1 m337 (antibody, V domains shown)
VH: QVQLQQSGAEVKKPGSSVKVSCKASGGTFSSYTISWVRQAPGQGLEWMGRIIPIFGTANYAQKFQGRVTITADKSTSTAYMELSSLRSEDTAVYYCARDLGPGGDSSGYYYGPGAFDIWGQGTMVTVSS
VL: not shown
B2: IgG1 m336 (antibody, V domains shown)
VH: QVQLVQSGAEVKKPGSSVKVSCKASGGTFSSYAISWVRQAPGQGLEWMGGIIPIFGTASYAQKFQGRVTITADKSTSTAYMELSSLRSEDTAVYYCARVGYCSSTSCNRGAFDIWGQGTMVTVSS
VL: DIQLTQSPSSLSASVGDRVTITCRASQGIRNDLGWYQQKPGKAPKLLIYAASSLQSGVPSRFSGSGSGTDFTLTISSLQPEDFATYYCQQLNSYPLTFGGGTKVEIKR
B3: IgG1 m338 (antibody, V domains shown)
VH: QVQLQQSGAEVKKRGSSVKVSCKASGGTFSSYTISWVRQAPGQGLEWMGRIIPILGIANYAQKFQGRVTITADKSTSTAYMELSSLRSEDTAVYYCARDLYDSSGYYRNTDAFDIWGQGTMVTVSS
VL: EIVMTQSPVTLSLSPGERATLSCRASQSVSSYLAWYQQKPGQAPRLLIYDASNRATGIPARFSGSGSGTDFTLTISSLEPEDFAVYYCQQYGSSPWTFGQGTKVEIKR

The target of this experiment is T1, MERS-CoV spike glycoprotein (S). Nature of the experiment: cell-based or functional assay.
Turning to B1, the “MERS-CoV pseudovirus neutralization (inhibition of viral entry) at 0.1 µg/ml” value was greater than 95%. As for B2, the “MERS-CoV pseudovirus neutralization (inhibition of viral entry) at 0.1 µg/ml” value is greater than 95%. With B3 the figure was greater than 95%.

Source of the values: patent US20160264647A1 (US Dept. of Health and Human Services, published 2016).
